Results from patent publication US20180360879A1 (CANCURE, published 2018).

Target: T1, murine 4-1BBL expressed on the surface of B16-F10 and B16-F10/4-1BBL melanoma cells (mouse, UniProt P41274 1-309)
T1 construct: whole, on cells; also called 4-1BB ligand; mouse 4-1BBL
T1 sequence (looked up): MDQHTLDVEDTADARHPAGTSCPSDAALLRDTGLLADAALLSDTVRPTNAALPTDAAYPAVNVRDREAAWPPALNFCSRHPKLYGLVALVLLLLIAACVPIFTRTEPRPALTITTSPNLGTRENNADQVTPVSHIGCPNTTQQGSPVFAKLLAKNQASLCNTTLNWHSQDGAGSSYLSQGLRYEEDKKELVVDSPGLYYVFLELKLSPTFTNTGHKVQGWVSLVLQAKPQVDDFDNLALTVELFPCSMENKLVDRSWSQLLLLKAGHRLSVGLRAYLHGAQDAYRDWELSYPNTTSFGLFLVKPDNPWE
Test: flow cytometry; cells incubated with the chimera, detected with PE-conjugated IgG Fcγ Ab
Protocol: FIG. 2. B16-F10-4-1BBL cells express functional 4-1BBL binding to 4-1BB. Cells were incubated with 41BB/TNFRSF9/Fc chimera and stained using a PE-conjugated IgG Fcγ Ab to detect binding to 4-1BBL, measured using the FACSCalibur flow cytometer. The black and the green histograms represent the unstained control samples of B16-F10 and B16-F10-4/1BBL sorted cells respectively. The red and the purple histograms show the B16-F10 and B16-F10/4-1BBL cells respectively stained only with the IgG Fcγ PE secondary Ab. The blue histogram represents the B16-F10 cells incubated with the 4-1BB/TNFRSF9/Fc Chimera and stained with the IgG Fcγ PE secondary Ab. The maroon histogram depicts populations of cells further subjected to sorting for 4-1BBL, re-expanded in culture before immunostaining with the 41BB/TNFRSF9/Fc chimera and the IgG Fcγ PE secondary Ab
To further test that the 4-1BBL expressed on the B16-F10/4-1BBL cells was intact and functional, an additional assay was performed for the binding of 4-1BBL on the cells to its receptor, 4-1BB. […]
Transfection efficiency was determined by staining B16-F10 sublines with antibodies to detect the cell surface markers, B7.1 and 4-1BBL. […] The presence of both of these cell surface molecules were detected using either flow cytometer. […]

B1: recombinant mouse 4-1BB/Fc chimera (Fc fusion, UniProt P20334 24-187, looked up)
chain: VQNSCDNCQPGTFCRKYNPVCKSCPPSTFSSIGGQPNCNICRVCAGYFRFKKFCSSTHNAECECIEGFHCLGPQCTRCEKDCRPGQELTKQGCKTCSLGTFNDQNGTGVCRPWTNCSLDGRSVLKTGTTEKDVVCGPPVVSFSPSTTISVTPEGGPGGHSLQVL
notes: Bought reagent; It calls it a 'primary antibody', but it is the receptor 4-1BB fused to Fc; also called 4-1BB/TNFRSF9/Fc Chimera; 41BB/TNFRSF9/Fc chimera; not shown: Fc part of the chimera
binding result: binds
